Assay results reported in patent US20110190200A1 (INDIANA UNIVERSITY RESEARCH AND TECHNOLOGY, published 2011).
Numbered stars: 1 amine (or outer) side, 2 acyl side, 3 side chain; on linkers, the order of the positions; unused ones are H or OH. Square brackets hold non-standard residues; d marks the D form. Side chains are listed from the residue outwards. Ends that are not written are not given here. * marks the point of attachment. γGlu = O=C(O)[C@H](CCC(=O)[*:2])N[*:1]; Palmitoyl = CCCCCCCCCCCCCCCC(=O)*; Met(O) = CS(=O)CC[C@H](N)C(=O)O; Myristoyl = CCCCCCCCCCCCCC(=O)*; Nle = CCCC[C@H](N)C(=O)O; Orn = NCCC[C@H](N)C(=O)O; Dab = NCC[C@H](N)C(=O)O; Dap = NC[C@H](N)C(=O)O; Aib = CC(C)(N)C(=O)O; Carbamoyl = NC(=O)*; Ahx = NCCCCCC(=O)O; βAla = NCCC(=O)O; Acm = CC(=O)NC*

B1: glucagon analog K29, K30 (peptide)
peptide: HSQGTFTSDYSKYLDSRRAQDFVQWLMNKK
B2: Peptide K backbone, Dab(Ac) at position 3 (peptide)
peptide: HS[Dab](Ac)GTFTSDYSKYLD[Aib]RRAADFVAWLMDE
B3: Peptide K backbone, Q at position 3 (peptide)
peptide: HSQGTFTSDYSKYLD[Aib]RRAADFVAWLMDE
B4: Peptide J backbone, Dab(Ac) at position 3 (peptide)
peptide: HS[Dab](Ac)GTFTSDYSKYLDTRRAAEFVAWL[Nle]DE
B5: Peptide J backbone, C(Acm) at position 3 (peptide)
peptide: HSC(Acm)GTFTSDYSKYLDTRRAAEFVAWL[Nle]DE
B6: Peptide J backbone, Q at position 3 (peptide)
peptide: HSQGTFTSDYSKYLDTRRAAEFVAWL[Nle]DE
B7: Peptide J backbone, Orn(Ac) at position 3 (peptide)
peptide: HS[Orn](Ac)GTFTSDYSKYLDTRRAAEFVAWL[Nle]DE
B8: Peptide J backbone, Dap(urea) at position 3 (peptide)
peptide: HS[Dap](Carbamoyl)GTFTSDYSKYLDTRRAAEFVAWL[Nle]DE
B9: Peptide J backbone, M(O) at position 3 (peptide)
peptide: HS[Met(O)]GTFTSDYSKYLDTRRAAEFVAWL[Nle]DE
B10: HSDab(Ac)…ibRRATDFVTWLLDE (peptide)
peptide: HS[Dab](Ac)GTFTSDYSKYLD[Aib]RRATDFVTWLLDE
B11: HSDab(Ac)…ibRRASDFVSWLLDE (peptide)
peptide: HS[Dab](Ac)GTFTSDYSKYLD[Aib]RRASDFVSWLLDE
B12: HSDab(Ac)…ibRRAADFVAWLLDTGPSSGAPPPS amide (peptide)
peptide: HS[Dab](Ac)GTFTSDYSKYLD[Aib]RRAADFVAWLLDTGPSSGAPPPS-NH2
modifications: N-terminus assumed
SMILES: CC(=O)NCC[C@H](NC(=O)[C@H](CO)NC(=O)[C@@H](N)Cc1c[nH]cn1)C(=O)NCC(=O)N[C@H](C(=O)N[C@@H](Cc1ccccc1)C(=O)N[C@H](C(=O)N[C@@H](CO)C(=O)N[C@@H](CC(=O)O)C(=O)N[C@@H](Cc1ccc(O)cc1)C(=O)N[C@@H](CO)C(=O)N[C@@H](CCCCN)C(=O)N[C@@H](Cc1ccc(O)cc1)C(=O)N[C@@H](CC(C)C)C(=O)N[C@@H](CC(=O)O)C(=O)NC(C)(C)C(=O)N[C@@H](CCCNC(=N)N)C(=O)N[C@@H](CCCNC(=N)N)C(=O)N[C@@H](C)C(=O)N[C@@H](C)C(=O)N[C@@H](CC(=O)O)C(=O)N[C@@H](Cc1ccccc1)C(=O)N[C@H](C(=O)N[C@@H](C)C(=O)N[C@@H](Cc1c[nH]c2ccccc12)C(=O)N[C@@H](CC(C)C)C(=O)N[C@@H](CC(C)C)C(=O)N[C@@H](CC(=O)O)C(=O)N[C@H](C(=O)NCC(=O)N1CCC[C@H]1C(=O)N[C@@H](CO)C(=O)N[C@@H](CO)C(=O)NCC(=O)N[C@@H](C)C(=O)N1CCC[C@H]1C(=O)N1CCC[C@H]1C(=O)N1CCC[C@H]1C(=O)N[C@@H](CO)C(N)=O)[C@@H](C)O)C(C)C)[C@@H](C)O)[C@@H](C)O
B13: Peptide 50 (Table 10) (peptide)
peptide: H[Aib]QGTFTSDK(Palmitoyl)SKYLD[Aib]RRAQDFVQWLMNT-NH2
B14: Peptide 80* (Table 10) (peptide)
peptide: H[Aib]QGTFTSDK([γGlu-γGlu-Palmitoyl])SKYLD[Aib]RRAQDFVC(PEG 40 kDa)WLMNT-NH2
B15: Peptide 79* (Table 10) (peptide)
peptide: H[Aib]QGTFTSDK([Ala-Ala-Palmitoyl])SKYLD[Aib]RRAQDFVC(PEG 40 kDa)WLMNT-NH2
B16: Peptide 82 (Table 10) (peptide)
peptide: H[Aib]QGTFTSDK([Ala-Ala-Palmitoyl])SKYLD[Aib]RRAQDFVQWLMNT-NH2
B17: Peptide 81* (Table 10) (peptide)
peptide: H[Aib]QGTFTSDK([Ala-Ala-Myristoyl])SKYLD[Aib]RRAQDFVC(PEG 40 kDa)WLMNT-NH2
B18: Peptide 77* (Table 10) (peptide)
peptide: H[Aib]QGTFTSDK(Myristoyl)SKYLD[Aib]RRAQDFVC(PEG 40 kDa)WLMNT-NH2
B19: Peptide 85 (Table 10) (peptide)
peptide: H[Aib]QGTFTSDK([Ahx-Palmitoyl])SKYLD[Aib]RRAQDFVQWLMNT-NH2
modifications: N-terminus assumed
SMILES: CCCCCCCCCCCCCCCC(=O)NCCCCCC(=O)NCCCC[C@H](NC(=O)[C@H](CC(=O)O)NC(=O)[C@H](CO)NC(=O)[C@@H](NC(=O)[C@H](Cc1ccccc1)NC(=O)[C@@H](NC(=O)CNC(=O)[C@H](CCC(N)=O)NC(=O)C(C)(C)NC(=O)[C@@H](N)Cc1c[nH]cn1)[C@@H](C)O)[C@@H](C)O)C(=O)N[C@@H](CO)C(=O)N[C@@H](CCCCN)C(=O)N[C@@H](Cc1ccc(O)cc1)C(=O)N[C@@H](CC(C)C)C(=O)N[C@@H](CC(=O)O)C(=O)NC(C)(C)C(=O)N[C@@H](CCCNC(=N)N)C(=O)N[C@@H](CCCNC(=N)N)C(=O)N[C@@H](C)C(=O)N[C@@H](CCC(N)=O)C(=O)N[C@@H](CC(=O)O)C(=O)N[C@@H](Cc1ccccc1)C(=O)N[C@H](C(=O)N[C@@H](CCC(N)=O)C(=O)N[C@@H](Cc1c[nH]c2ccccc12)C(=O)N[C@@H](CC(C)C)C(=O)N[C@@H](CCSC)C(=O)N[C@@H](CC(N)=O)C(=O)N[C@H](C(N)=O)[C@@H](C)O)C(C)C
B20: Peptide 87 (Table 10) (peptide)
peptide: H[Aib]QGTFTSDK([Pro-Pro-Palmitoyl])SKYLD[Aib]RRAQDFVQWLMNT-NH2
B21: Peptide 78* (Table 10) (peptide)
peptide: H[Aib]QGTFTSDK([γGlu-γGlu-Myristoyl])SKYLD[Aib]RRAQDFVC(PEG 40 kDa)WLMNT-NH2
B22: Peptide 84 (Table 10) (peptide)
peptide: H[Aib]QGTFTSDK([βAla-βAla-Palmitoyl])SKYLD[Aib]RRAQDFVQWLMNT-NH2
modifications: N-terminus assumed
SMILES: CCCCCCCCCCCCCCCC(=O)NCCC(=O)NCCC(=O)NCCCC[C@H](NC(=O)[C@H](CC(=O)O)NC(=O)[C@H](CO)NC(=O)[C@@H](NC(=O)[C@H](Cc1ccccc1)NC(=O)[C@@H](NC(=O)CNC(=O)[C@H](CCC(N)=O)NC(=O)C(C)(C)NC(=O)[C@@H](N)Cc1c[nH]cn1)[C@@H](C)O)[C@@H](C)O)C(=O)N[C@@H](CO)C(=O)N[C@@H](CCCCN)C(=O)N[C@@H](Cc1ccc(O)cc1)C(=O)N[C@@H](CC(C)C)C(=O)N[C@@H](CC(=O)O)C(=O)NC(C)(C)C(=O)N[C@@H](CCCNC(=N)N)C(=O)N[C@@H](CCCNC(=N)N)C(=O)N[C@@H](C)C(=O)N[C@@H](CCC(N)=O)C(=O)N[C@@H](CC(=O)O)C(=O)N[C@@H](Cc1ccccc1)C(=O)N[C@H](C(=O)N[C@@H](CCC(N)=O)C(=O)N[C@@H](Cc1c[nH]c2ccccc12)C(=O)N[C@@H](CC(C)C)C(=O)N[C@@H](CCSC)C(=O)N[C@@H](CC(N)=O)C(=O)N[C@H](C(N)=O)[C@@H](C)O)C(C)C
B23: Peptide 86 (Table 10) (peptide)
peptide: H[Aib]QGTFTSDK([Leu-Leu-Palmitoyl])SKYLD[Aib]RRAQDFVQWLMNT-NH2
modifications: N-terminus assumed
SMILES: CCCCCCCCCCCCCCCC(=O)N[C@@H](CC(C)C)C(=O)N[C@@H](CC(C)C)C(=O)NCCCC[C@H](NC(=O)[C@H](CC(=O)O)NC(=O)[C@H](CO)NC(=O)[C@@H](NC(=O)[C@H](Cc1ccccc1)NC(=O)[C@@H](NC(=O)CNC(=O)[C@H](CCC(N)=O)NC(=O)C(C)(C)NC(=O)[C@@H](N)Cc1c[nH]cn1)[C@@H](C)O)[C@@H](C)O)C(=O)N[C@@H](CO)C(=O)N[C@@H](CCCCN)C(=O)N[C@@H](Cc1ccc(O)cc1)C(=O)N[C@@H](CC(C)C)C(=O)N[C@@H](CC(=O)O)C(=O)NC(C)(C)C(=O)N[C@@H](CCCNC(=N)N)C(=O)N[C@@H](CCCNC(=N)N)C(=O)N[C@@H](C)C(=O)N[C@@H](CCC(N)=O)C(=O)N[C@@H](CC(=O)O)C(=O)N[C@@H](Cc1ccccc1)C(=O)N[C@H](C(=O)N[C@@H](CCC(N)=O)C(=O)N[C@@H](Cc1c[nH]c2ccccc12)C(=O)N[C@@H](CC(C)C)C(=O)N[C@@H](CCSC)C(=O)N[C@@H](CC(N)=O)C(=O)N[C@H](C(N)=O)[C@@H](C)O)C(C)C
B24: Peptide 83 (Table 10) (peptide)
peptide: H[Aib]QGTFTSDK([γGlu-γGlu-Palmitoyl])SKYLD[Aib]RRAQDFVQWLMNT-NH2
B25: Peptide Chimera 2-AIB2-K30-acylated (peptide)
peptide: HXQGTFTSDYSKYLDEQAAKEFICWLMNTK
modifications: AIB at position 2; Lys at position 30 acylated with a C18 fatty acyl group; Cys at position 24 comprises a 40 kDa PEG molecule; C-terminal amide
B26: Peptide Chimera 2-AIB2-K10-acylated (peptide)
peptide: H[Aib]QGTFTSDK(C18 fatty acyl)SKYLDEQAAKEFIC(PEG 40 kDa)WLMNT-NH2

target: T1, glucagon receptor (human, UniProt P47871 26-477); assay: cell-based or functional assay
T1 sequence (P47871 26-477): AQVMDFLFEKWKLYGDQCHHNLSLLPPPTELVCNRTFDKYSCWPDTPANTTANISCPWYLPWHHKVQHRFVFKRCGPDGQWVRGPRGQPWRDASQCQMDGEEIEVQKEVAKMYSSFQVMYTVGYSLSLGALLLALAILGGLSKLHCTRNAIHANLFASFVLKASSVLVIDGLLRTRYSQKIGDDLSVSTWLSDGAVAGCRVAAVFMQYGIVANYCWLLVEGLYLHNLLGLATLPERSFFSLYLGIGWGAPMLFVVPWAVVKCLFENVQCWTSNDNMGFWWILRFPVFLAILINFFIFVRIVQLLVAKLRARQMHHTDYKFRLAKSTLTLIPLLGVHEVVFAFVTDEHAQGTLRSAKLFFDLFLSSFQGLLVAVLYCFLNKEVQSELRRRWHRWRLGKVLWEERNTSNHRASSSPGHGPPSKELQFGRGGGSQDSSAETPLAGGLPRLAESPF

Binder	Observed EC50s (nM) in Cells Overexpressing the Glucagon Receptor, Test 1 [nM]
B1	0.89

target: T1, glucagon receptor; assay: cell-based or functional assay; remark: another data set of the same source

Binder	% activity* [%]	EC50 at Glucagon Receptor [nM]
B2	86	0.07
B3	15	
B4	19	0.31
B5	33	
B6	25	
B7	7	0.92
B8	13	0.48
B9	7	0.91

target: T1, glucagon receptor; assay: cell-based or functional assay; remark: another data set of the same source

Binder	% activity* [%]	EC50 (nM) at Glucagon Receptor [nM]
B10	46	0.057
B11	54	0.048
B12	113	0.023

target: T1, glucagon receptor; assay: cell-based or functional assay; remark: another data set of the same source

Binder	EC50 at Glucagon Receptor [nM]
B13	0.572
B14	0.108
B15	0.102
B16	0.024
B17	0.597
B18	21.9
B19	0.01
B20	0.017
B21	0.319

target: T2, GLP-1 receptor (UniProt P43220 24-463, limits assumed); assay: cell-based or functional assay

Binder	EC50 at GLP-1 Receptor [nM]
B14	0.042
B22	0.004
B15	0.055
B16	0.108
B23	0.006
B17	0.271
B18	1.46
B19	0.005
B24	0.043
B20	0.009
B21	0.103

target: T2, GLP-1 receptor; assay: cell-based or functional assay; remark: another data set of the same source
Target sequence in this assay (P43220 24-463 limits assumed): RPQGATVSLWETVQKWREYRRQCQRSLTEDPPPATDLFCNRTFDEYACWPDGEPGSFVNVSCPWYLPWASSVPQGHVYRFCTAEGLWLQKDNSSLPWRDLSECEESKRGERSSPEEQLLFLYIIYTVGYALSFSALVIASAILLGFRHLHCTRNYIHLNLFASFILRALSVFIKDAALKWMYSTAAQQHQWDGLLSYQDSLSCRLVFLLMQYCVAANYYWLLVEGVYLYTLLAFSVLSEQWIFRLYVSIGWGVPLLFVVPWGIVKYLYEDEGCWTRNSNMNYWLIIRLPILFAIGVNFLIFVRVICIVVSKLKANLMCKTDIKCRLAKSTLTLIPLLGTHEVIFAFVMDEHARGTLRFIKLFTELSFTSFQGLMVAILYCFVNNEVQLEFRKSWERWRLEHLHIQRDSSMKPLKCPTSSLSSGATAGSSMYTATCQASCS

Binder	EC50 at the GLP-1 receptor [nM]
B25	0.465
B26	0.007
